# Laboratory results taken from patent US20240002547A1, “T[…]-TARGETING CONSTRUCTS AND USES THEREOF” (AEBI LTD., priority 2016, published 2024).
# Target: human EGFR on A431 and MCF-7 cells (human), P00533
# Experiment: cell-based or functional assay
binder,measurement,value
CHPGDKQEDPNCLQADK (modifications not checked) [E13.3],IC50 of inhibition of EGFR autophosphorylation in A431 cells,2 µM
same,Normalized Percent of EGFR autophosphorylation inhibition,99.4%
